Experimental data taken from publication PMC11051896.

System: T1, CcpA (Lactococcus lactis N8), ORF:ea67f8fe
T1 sequence: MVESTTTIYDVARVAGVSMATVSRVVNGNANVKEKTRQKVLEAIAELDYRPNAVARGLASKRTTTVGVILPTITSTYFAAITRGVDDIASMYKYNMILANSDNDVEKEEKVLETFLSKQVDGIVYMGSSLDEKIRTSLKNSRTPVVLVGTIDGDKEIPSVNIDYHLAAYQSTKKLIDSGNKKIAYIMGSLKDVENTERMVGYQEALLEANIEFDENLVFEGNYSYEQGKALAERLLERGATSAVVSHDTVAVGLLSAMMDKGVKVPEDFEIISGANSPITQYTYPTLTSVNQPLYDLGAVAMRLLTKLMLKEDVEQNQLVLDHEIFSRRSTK
Test: MST
Details: MST: Cy5-DNA 375 nM stock (10 uL per tube), CcpA from 15 uM in 16 two-fold dilutions; assay buffer, salt, pH and temperature not stated (protein purified in …)

“AGCCAGTGGCGATAAGTACGATAAAATATTTAAAAGTCTATATATACCAAGGAAGAAAACGCTTTAAATTTTTGTAAATTATTAGAAATAATGATAG (double strand) [N8-1-cre]” was tested, and the Kd was 44 nM.
For “AGCCAGTGGCGATAAGTACGATAAAATATTTAAAAGTCTATATATACCAAGGAAGAAAACTCTTTAAATTTTTGTAAATTATTAGAAATAATGATAG (double strand) [N8-2-cre]”, the binding was “no binding”.
